The term Kd denotes the free concentration of one partner at which half of the binding sites on the other are occupied at equilibrium, for simple one-to-one binding.

Where “and” joins values, the source holds several entries; their conditions need not be identical. Identical values can stand only once.

Holding throughout (assay): SPR, steady state, Fab over captured mutant
(In general: SPR reads the build-up and loss of mass on a sensor chip optically.)

Experiment [1] has as its target T1, shCD131 N37A (human, UniProt P32927 17-438).
T1 construct: C-terminal 6xHis
T1 sequence: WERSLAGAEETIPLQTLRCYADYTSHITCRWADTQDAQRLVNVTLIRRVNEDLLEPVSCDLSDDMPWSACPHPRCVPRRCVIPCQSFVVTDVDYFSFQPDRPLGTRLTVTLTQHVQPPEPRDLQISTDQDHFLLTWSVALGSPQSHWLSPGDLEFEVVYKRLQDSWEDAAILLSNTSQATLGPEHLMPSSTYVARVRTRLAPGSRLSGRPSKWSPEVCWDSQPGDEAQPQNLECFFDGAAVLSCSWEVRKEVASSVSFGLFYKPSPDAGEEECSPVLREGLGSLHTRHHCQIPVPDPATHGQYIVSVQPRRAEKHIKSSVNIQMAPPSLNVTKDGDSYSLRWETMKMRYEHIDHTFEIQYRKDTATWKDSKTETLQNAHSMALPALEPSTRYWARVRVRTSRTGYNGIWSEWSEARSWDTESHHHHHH
The procedure: (§1) For some analysis purified Fab was injected over each flow cell for 3 minutes and dissociation was monitored for a further 10 minutes. Regeneration of the surface was performed after each cycle with a 40 second injection of 25 mM glycine, pH 2.0. The analysis was performed with Fabs at several concentrations between 100 and 0.31 nM, with each concentration analyzed twice and in random order. The analysis was performed at a flow rate of 30 μl/min in HBS-EP buffer (10 mM Hepes, 150 mM NaCl, 3 mM EDTA, 0.005% Tween 20, pH 7.4) at 37° C. Responses from spots 2 and 4 of each flow cell, (in which shβc was not captured, but otherwise treated identically), were subtracted from those of spots 1 and 5 respectively to produce reference subtracted data. Reference subtracted responses from a blank injection comprising buffer alone were subtracted from the resultant sensorgrams to produce double referenced data suitable for kinetic analysis. Double-referenced sensorgrams were fitted using non-linear regression to a model describing 1:1 kinetics, including a term for mass transport limitation. The Rₘₐₓ value was fitted locally to account for slight deviations in the level of sCD131 captured, with association rate (kₐ), dissociation rate (kd) and equilibrium dissociation constant (KD) fitted globally.
(§2) Mapping of the shCD131 epitope was performed by measurement of the affinity of Fabs for various alanine point mutants of shCD131 essentially as described above, with the following exceptions. Each shCD131 mutant was captured for 120 seconds at concentrations between 1 and 5 μg/ml. For kinetic analysis, purified recombinant Fabs were injected for 2 minutes, and dissociation was monitored for a further 2 minutes. […] Fab concentrations ranged from 16 μM to 3.9 nM in two-fold dilutions. The assays were conducted at 25° C. All sensorgrams were reference subtracted as described above. For determination of steady-state affinity (KD only), the response at the end of the binding phase was used to fit the data to a single-site binding model. Kinetic parameters were determined as described above.

Experiment [2] concerns the target T2, shCD131 M340A (human, UniProt P32927 17-438).
T2 construct: C-terminal 6xHis
T2 sequence: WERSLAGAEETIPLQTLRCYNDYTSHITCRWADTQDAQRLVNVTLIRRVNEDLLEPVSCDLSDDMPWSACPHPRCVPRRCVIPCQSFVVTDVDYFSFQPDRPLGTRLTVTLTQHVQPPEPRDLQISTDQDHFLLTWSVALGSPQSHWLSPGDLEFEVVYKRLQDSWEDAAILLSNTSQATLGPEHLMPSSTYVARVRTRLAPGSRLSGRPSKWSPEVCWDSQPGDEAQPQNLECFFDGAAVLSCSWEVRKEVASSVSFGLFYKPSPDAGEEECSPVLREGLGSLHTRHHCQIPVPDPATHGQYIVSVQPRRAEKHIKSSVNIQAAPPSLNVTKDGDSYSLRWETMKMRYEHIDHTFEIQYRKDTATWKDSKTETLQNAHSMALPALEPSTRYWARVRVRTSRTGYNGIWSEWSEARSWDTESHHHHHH
The procedure:
as §1, §2

Experiment [3] addresses T3, shCD131 H367A (human, UniProt P32927 17-438).
T3 construct: C-terminal 6xHis
T3 sequence: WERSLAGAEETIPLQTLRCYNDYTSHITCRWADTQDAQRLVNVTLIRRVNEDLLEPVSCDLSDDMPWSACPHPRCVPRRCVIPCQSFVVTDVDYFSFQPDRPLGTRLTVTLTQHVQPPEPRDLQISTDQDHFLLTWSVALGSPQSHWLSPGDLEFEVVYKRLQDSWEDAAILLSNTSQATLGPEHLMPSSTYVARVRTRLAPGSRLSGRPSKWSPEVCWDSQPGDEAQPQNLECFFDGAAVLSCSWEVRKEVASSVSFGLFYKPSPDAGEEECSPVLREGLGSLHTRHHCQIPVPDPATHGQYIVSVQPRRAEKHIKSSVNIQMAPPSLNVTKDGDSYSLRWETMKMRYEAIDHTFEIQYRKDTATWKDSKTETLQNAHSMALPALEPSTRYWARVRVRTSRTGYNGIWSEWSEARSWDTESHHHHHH
The procedure: as §1, §2

For experiment [4], the target named is T4, shCD131 I368A (human, UniProt P32927 17-438).
T4 construct: C-terminal 6xHis
T4 sequence: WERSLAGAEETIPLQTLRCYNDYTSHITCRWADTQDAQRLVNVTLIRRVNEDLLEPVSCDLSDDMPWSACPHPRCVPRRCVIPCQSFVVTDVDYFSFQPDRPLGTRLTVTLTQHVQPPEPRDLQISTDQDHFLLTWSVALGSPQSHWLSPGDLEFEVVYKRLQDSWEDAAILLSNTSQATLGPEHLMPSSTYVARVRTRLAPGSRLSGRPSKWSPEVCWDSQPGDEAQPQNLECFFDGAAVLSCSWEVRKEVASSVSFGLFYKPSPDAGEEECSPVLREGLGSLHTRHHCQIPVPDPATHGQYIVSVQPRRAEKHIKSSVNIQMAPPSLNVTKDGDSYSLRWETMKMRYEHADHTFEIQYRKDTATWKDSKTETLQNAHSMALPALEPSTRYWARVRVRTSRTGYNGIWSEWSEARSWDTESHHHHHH
The procedure: as §1, §2

B1: 9A2 Fab (Fab, V domains shown)
VH: EVQLLESGGGLVQPGGSLRLSCAASGFTFSHYHMLWVRQAPGKGLEWVSSIRSSGGFTYYADSVKGRFTISRDNSKNTLYLQMNSLRAEDTAVYYCARFYDSFFDIWGQGTMVTVSS
VL: DIQMTQSPSSVSASVGDRVTITCRASQGISSWLAWYQQKPGKAPKLLIYAASSLQSGVPSRFSGSGSGTDFTLTISSLQPEDFATYYCQQANSFPITFGQGTRLEIKR
notes: also called recombinant Fab of 9A2
Regarding B1, the equilibrium dissociation constant (Kd) in experiment [1] was 0.62 µM; in experiment [2], 0.235 µM; in experiment [3], 10.3 µM and 10.8 µM; in experiment [4], 4.77 µM.
